The source of these data is patent EP3349768A1.

This assay has as its target T1, Cathepsin G (CTSG) from mouse bone marrow cell lysates (mouse) (UniProt P28293).
T1 sequence (looked up): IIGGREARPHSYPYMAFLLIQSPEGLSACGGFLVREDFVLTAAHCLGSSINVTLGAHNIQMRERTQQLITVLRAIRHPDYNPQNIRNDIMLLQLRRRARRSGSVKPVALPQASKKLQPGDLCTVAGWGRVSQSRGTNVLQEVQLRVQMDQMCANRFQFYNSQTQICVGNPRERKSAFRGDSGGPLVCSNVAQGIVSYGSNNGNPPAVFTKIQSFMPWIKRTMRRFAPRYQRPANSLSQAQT
The assay is described as follows: cell-based or functional assay.

B1: LKAb antibody (anti-Cathepsin G scFv, purified as scFv-Fc fusion protein) (Fc fusion, part only; not given: Fc tag, part only)
scFv, part: MAQVQLVQSGAEVKKPGASVKVSCKASGYTFTSYYMHWVRQAPGQGLEWMGGIIPIFGTGNYAQKFQGRVTITADESTSTAYMELSSLRSEDTAVYYCAREEEQQFSLDYWGQGTLVTVSSGGGGGLSNFMLTQPHSVSESPGKTVTISCTRSSGSIASNSVHWYQQRPGSAPTTVISENNQRPSGVPDRFSGSIDSSSNSASLTISGLKTEDEADYYCQSYDSNFHWVFGGGTQLTVLG
For B1, the decrease in CTSG enzymatic activity (cleavage of a specific substrate, release of pNA) turned out to be 50%.
